Measured values reported in article PMC11301380, “Non-invasive strategy: Developing a topical IL-4Rα-specific nanobody for the treatment of allergic airway diseases” (Materials Today Bio, 2024).
Where a chain is given by its changes, count along the chain named. In names and notes the source's numbering stands.

Biological target: T1, extracellular domain of human IL-4Rα (human, UniProt P24394, biotin (Biotin-labeled IL-4Rα on the Biacore sensor chip))
T1 construct: interleukin-4 receptor alpha, human, extracellular domain; Source and limits of the recombinant protein may stand in the materials list of the supplement; Biotin labelling is told only for the Biacore T200 experiment; also called IL-4 Receptor alpha
Assay: SPR; Biacore T200; biotin-labeled IL-4Rα immobilised on the sensor chip (BR100531); nanobody 15.625-2000 nM; running buffer PBS pH 7.4; 1:1 kinetic binding model
Conditions: both partners purified

T1 sequence (P24394 26-232): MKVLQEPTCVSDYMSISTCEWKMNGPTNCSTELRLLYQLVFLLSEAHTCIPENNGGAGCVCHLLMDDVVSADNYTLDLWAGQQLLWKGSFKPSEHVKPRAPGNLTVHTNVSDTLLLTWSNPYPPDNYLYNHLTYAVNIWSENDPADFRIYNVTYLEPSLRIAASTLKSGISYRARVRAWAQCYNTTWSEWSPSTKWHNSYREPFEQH

B1: nanobody H5 (VHH)
VHH: QVQLVESGGGSVQAGGSLRLSCAASGSISSITYLGWFRQAPGKEREGVAALSTSSGTTYYADSVKGRFTVSLDNAKNTVYLQMNSLKPEDTALYYCAAADKGREYTLARAKYWYWGQGTQVTVSA
notes: synthetic nanobody selected from a library on the convex scaffold (pRDV containing Sb-convex, Addgene 132696) with randomised CDR3; also called H5^WT; H5 monomer; source: E. coli BL21 (pSBinit), periplasmic extract, purified (TALON Superflow)
  Kd: 1.42 µM

B2: H5^E104R (VHH)
VHH: B1 VHH with E104R
notes: also called H5 mutant E104R; source: E. coli BL21 (pSBinit), periplasmic extract, purified (TALON Superflow)
  Kd: 1.03 µM

B3: H5^A110Y (VHH)
VHH: B1 VHH with A110Y
notes: also called H5 mutant A110Y; source: E. coli BL21 (pSBinit), periplasmic extract, purified (TALON Superflow)
  Kd: 0.708 µM
